The record followed here is PMC3686867, “Characterization of a Novel Putative S-Adenosylmethionine Decarboxylase-Like Protein from Leishmania donovani” (PLoS ONE, 2013).

For assay [1], the target named is T1, S-adenosylmethionine decarboxylase-like protein (ADL; putative S-adenosylmethionine decarboxylase-like proenzyme) (Leishmania donovani, UniProt E9BM59).
T1 construct: gene LdCL_300037200; 894 bp L. donovani ADL gene in pQE30, 6×His-ADL, ~33 kDa, dimer
T1 sequence (E9BM59 1-297): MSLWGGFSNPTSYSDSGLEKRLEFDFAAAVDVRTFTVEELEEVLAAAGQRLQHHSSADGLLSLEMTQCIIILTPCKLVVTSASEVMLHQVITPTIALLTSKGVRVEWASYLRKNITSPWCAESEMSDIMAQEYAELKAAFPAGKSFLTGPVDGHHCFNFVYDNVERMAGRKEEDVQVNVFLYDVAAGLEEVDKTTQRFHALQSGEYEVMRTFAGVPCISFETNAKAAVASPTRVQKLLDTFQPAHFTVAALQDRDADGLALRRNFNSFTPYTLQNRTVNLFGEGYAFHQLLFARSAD
As to the kind of experiment: tryptophan fluorescence quenching titration (saturation isotherm); supported by far-UV CD. The format is binding.

Assay [2] concerns the target Leishmania donovani putative S-adenosylmethionine decarboxylase-like proenzyme (ADL) (Leishmania donovani). As to the kind of experiment: native gel or EMSA; native polyacrylamide gel electrophoresis of purified ADL.
Assay [3] shares this target. As to the kind of experiment: SEC; Superdex 75 10/300; ADL 1 mg/ml; 50 mM Tris-HCl pH 7.0, 50 mM NaCl, 3 mM β-me; 25°C; calibrated with low molecular weight standards; elution at 10.4 ml, ~66 kDa.

As for `C[S+](CC[C@H](N)C(=O)[O-])C[C@H]1O[C@@H](n2cnc3c(N)ncnc32)[C@H](O)[C@@H]1O` (stereo partly drawn) [S-adenosylmethionine], binding in assay [1] was characterised by a dissociation constant (Kd) of 51 ± 5 µM. With “Leishmania donovani putative S-adenosylmethionine decarboxylase-like proenzyme (ADL) (natural protein)”, the stoichiometry N in assay [2] and in assay [3] was 2 in each case.

As usually defined, the Kd is the concentration at which binding is half-saturated. A lower Kd goes with tighter binding. As usually defined, the stoichiometry N is the number of molecules, sites or subunits per partner or assembly.
